Assay in all cases: purified protein
Substrate in data set [1]: CC(N)(CO)C(=O)O
Conditions: 2 mM NAD+, 100 mM Tris-HCl pH 9.0, 30 °C.

Substrate in data set [2]: COC(=O)[C@@H](C)CO
Conditions: 2 mM NAD+, 100 mM Tris-HCl pH 9.0, 30 °C.

Substrate in data set [3]: C[C@@H](CO)C(=O)O
Conditions: 2 mM NAD+, 100 mM Tris-HCl pH 9.0, 30 °C.

Substrate in data set [4]: NC(=O)c1ccc[n+]([C@@H]2O[C@H](COP(=O)(O)OP(=O)(O)OC[C@H]3O[C@@H](n4cnc5c(N)ncnc54)[C@H](O)[C@@H]3O)[C@@H](O)[C@H]2O)c1
Conditions: 3 mM 3-hydroxypropionate, NAD+ 0.025-4 mM, 100 mM Tris-HCl pH 9.0, 30 °C, varied: cofactor.

Substrate in data set [5]: O=C(O)CCO
Conditions: 2 mM NAD+, 100 mM Tris-HCl pH 9.0, 30 °C.

B1: 3HIBDH-IV (Pseudomonas sp. ATCC 13867) (protein)
chain: MRIGFIGLGNMGGPMAANLLKAGFDLSVFDLSAKAVAAAVALGARALASPAEVARDDVEVIITMLPAAAHVKQVFLGEDGLLANVQPGVLLIDSSTIDPLNAREVSAAALAHGNPMLDAPVSGGTAGAAAGTLTFMVGGEPADFERARPALAAMGKNIVHCGGTGNGQVAKVANNLLLGISMIGVAEAMSLGVKLGMDADVLAGIINTSSGRCWSSEVNNPLTGAPAARGYSGGFGTDLMLKDLGLASEAARQVRQPVLLGALAQQLFQTFSNQGNGQLDFSAIVKLYEQG
A word on the Km: it is the concentration of substrate that gives half-maximal velocity. The Vmax is the rate approached at saturating substrate. In general, kcat refers to the maximal rate divided by the concentration of active sites. As a reminder, the kcat/Km is the second-order rate constant that governs catalysis at low substrate concentration. Turning to B1, the Km in data set [1] is 24180 ± 3169 µM; in data set [2] it was 25142 ± 1667 µM; in data set [3], 178 ± 10 µM; in data set [4], 164 ± 37 µM; in data set [5], 1055 ± 35 µM. Also, the Vmax in data set [1] is 12.4 µmol/min/mg; in data set [2], 67 µmol/min/mg; in data set [3] it was 151 µmol/min/mg; in data set [4] it was 12.6 µmol/min/mg; in data set [5], 20.2 µmol/min/mg. Moreover, the kcat was found to be 6.62 ± 0.475 s⁻¹ in data set [1]; 35.8 ± 3.3 s⁻¹ in data set [2]; 80.8 ± 1.1 s⁻¹ in data set [3]; 6.72 ± 0.126 s⁻¹ in data set [4]; 10.8 ± 0.945 s⁻¹ in data set [5]. Also, the kcat/Km in data set [1] stood at 275 ± 16 M⁻¹ s⁻¹; in data set [2], 1430 ± 231 M⁻¹ s⁻¹; in data set [3], 455000 ± 33000 M⁻¹ s⁻¹; in data set [4], 42400 ± 10900 M⁻¹ s⁻¹; in data set [5], 10200 ± 699 M⁻¹ s⁻¹.
